Molecular target: OsPUB2 recombinant protein, bacterially expressed ((His)6-OsPUB2 and MBP-OsPUB2) (rice (Oryza sativa L.))

“OsPUB3 recombinant protein, bacterially expressed ((His)6-OsPUB3 and MBP-OsPUB3) (natural protein)” showed an apparent half-life of MBP-OsPUB2 in mock-treated rice cell-free extract when mixed with (His)6-OsPUB3 (150 min without it); cell-free degradation assay, 0-6 h at 30°C of 4.17 h and an apparent half-life of MBP-OsPUB3 in mock-treated rice cell-free extract when mixed with (His)6-OsPUB2 (140 min without it); cell-free degradation assay, 0-6 h at 30°C of 5.83 h.

Reference: paper PMC5247461
